Results on one molecule are retold here after patent US20240083974A1 (ETH Z RICH, published 2024).

The target in this test is T1, artificial transmembrane protein with eYFP (enhanced yellow fluorescent protein) as the receptor structure (Aequorea victoria (Water jellyfish) …, UniProt P42212 2-238 = GFP).
T1 construct: Control construct in living cells; not shown: Three are signal peptide-SNAPf-PdgfrTM-Li
Nature of the test: label-free diffraction signal (focal molography) from living cells on a nanopatterned waveguide after injection of the peptide.

Ends that are not written are not given here.

B1: Grb2-targeting peptide (peptide)
peptide: KKWKMRRNPFWIKIQRCCGIRVVDNSPPPPLPPRRRRSAPSPTRV-NH2
modifications: cysteine pairing not given here
notes: The hyphen between the two Cys may mean two peptides joined by a disulfide; also called P6; protein specifically targeting Grb2
For B1, the binding result is “no binding”.
